Laboratory results published in patent US20210205403A1 (RESEARCH FOUNDATION FOR THE STATE UNIVERSITY OF NEW YORK, published 2021).

Molecular target: HDM-2 in the cancer cell membrane (human, UniProt Q00987 1-491)
Test: cell-based or functional assay

HDM-2 in the cancer cell membrane, sequence (Q00987 whole entry): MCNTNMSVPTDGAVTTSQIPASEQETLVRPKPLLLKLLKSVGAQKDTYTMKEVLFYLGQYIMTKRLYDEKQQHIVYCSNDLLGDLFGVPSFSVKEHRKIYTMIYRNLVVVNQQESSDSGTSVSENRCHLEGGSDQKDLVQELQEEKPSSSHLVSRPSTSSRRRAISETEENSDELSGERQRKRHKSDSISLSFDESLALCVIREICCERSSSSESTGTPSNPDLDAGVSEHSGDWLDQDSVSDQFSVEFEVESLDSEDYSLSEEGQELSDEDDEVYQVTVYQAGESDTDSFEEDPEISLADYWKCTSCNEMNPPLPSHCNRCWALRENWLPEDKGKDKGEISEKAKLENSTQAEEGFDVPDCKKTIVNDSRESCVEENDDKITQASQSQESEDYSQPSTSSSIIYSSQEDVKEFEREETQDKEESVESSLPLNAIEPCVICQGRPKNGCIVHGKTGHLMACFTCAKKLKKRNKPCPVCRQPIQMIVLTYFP

IC50 (dose of PNC-27 on cancer cells): 125 µg/mL
Binder: PPLSQETFSDLWKLLKKWKMRRNQFWVKVQRG [PNC-27 (p53 aa12-26-MRP)]
